B1: Neuropilin-1 (Mus musculus), P97333 (parent)
chain: MERGLPLLCATLALALALAGAFRSDKCGGTIKIENPGYLTSPGYPHSYHPSEKCEWLIQAPEPYQRIMINFNPHFDLEDRDCKYDYVEVIDGENEGGRLWGKFCGKIAPSPVVSSGPFLFIKFVSDYETHGAGFSIRYEIFKRGPECSQNYTAPTGVIKSPGFPEKYPNSLECTYIIFAPKMSEIILEFESFDLEQDSNPPGGMFCRYDRLEIWDGFPEVGPHIGRYCGQKTPGRIRSSSGVLSMVFYTDSAIAKEGFSANYSVLQSSISEDFKCMEALGMESGEIHSDQITASSQYGTNWSVERSRLNYPENGWTPGEDSYKEWIQVDLGLLRFVTAVGTQGAISKETKKKYYVKTYRVDISSNGEDWISLKEGNKAIIFQGNTNPTDVVLGVFSKPLITRFVRIKPVSWETGISMRFEVYGCKITDYPCSGMLGMVSGLISDSQITASNQADRNWMPENIRLVTSRTGWALPPSPHPYTNEWLQVDLGDEKIVRGVIIQGGKHRENKVFMRKFKIAYSNNGSDWKTIMDDSKRKAKSFEGNNNYDTPELRTFSPLSTRFIRIYPERATHSGLGLRMELLGCEVEAPTAGPTTPNGNPVDECDDDQANCHSGTGDDFQLTGGTTVLATEKPTIIDSTIQSEFPTYGFNCEFGWGSHKTFCHWEHDSHAQLRWSVLTSKTGPIQDHTGDGNFIYSQADENQKGKVARLVSPVVYSQSSAHCMTFWYHMSGSHVGTLRVKLRYQKPEEYDQLVWMVVGHQGDHWKEGRVLLHKSLKLYQVIFEGEIGKGNLGGIAVDDISINNHISQEDCAKPTDLDKKNTEIKIDETGSTPGYEGEGEGDKNISRKPGNVLKTLDPILITIIAMSALGVLLGAVCGVVLYCACWHNGMSERNLSALENYNFELVDGVKLKKDKLNPQSNYSEA
B2: Plexin-A2 (Mus musculus), P70207 (parent)
chain: MEQRRFYLRAMQADNLSVVLLSVAWLLLARGTTGMPQYSTFHSENRDWTFNHLTVHRRTGAVYVGAINRVYKLTGNLTIQVAHKTGPEEDNKACYPPLIVQPCSEVLTLTNNVNKLLIIDYSENRLLACGSLYQGVCKLLRLDDLFILVEPSHKKEHYLSSVNKTGTMYGVIVRSEGEDGKLFIGTAVDGKQDYFPTLSSRKLPRDPESSAMLDYELHSDFVSSLIKIPSDTLALVSHFDIFYIYGFASGGFVYFLTVQPETPDGMAINSAGDLFYTSRIVRLCKDDPKFHSYVSLPFGCTRAGVEYRLLQAAYLAKPGEALAQAFNISSDEDVLFAIFSKGQKQYHHPPDDSALCAFPIRAINLQIKERLQSCYHGEGNLELNWLLGKDVQCTKAPVPIDDNFCGLDINQPLGGSTPVEGLTLYTTSRDRLTSVASYVYNGYSVVFVGTKSGKLKKIRADGPPHGGVQYEMVSVFKDGSPILRDMAFSINQLYLYVMSERQVTRVPVESCEQYTTCGECLSSGDPHCGWCALHNMCSRRDKCQRAWEANRFAASISQCMSLEVHPNSISVSDHSRLLSLVVNDAPNLSEGIACAFGNLTEVEGQVSGSQVICISPGPKDVPVIPLDQDWFGLELQLRSKETGKIFVSTEFKFYNCSAHQLCLSCVNSAFRCHWCKYRNLCTHDPTTCSFQEGRINVSEDCPQLVPTEEILIPVGEVKPITLKARNLPQPQSGQRGYECVLSIQGAVHRVPALRFNSSSVQCQNSSYQYDGMDISNLAVDFAVVWNGNFIIDNPQDLKVHLYKCAAQRESCGLCLKADHKFECGWCSGERRCTLHQHCPSTSSPWLDWSSHNVKCSNPQITEILTVSGPPEGGTRVTIHGVNLGLDFSEIAHHVQVAGVPCTPIPGEYIIAEQIVCEMGHAVIGTTSGPVRLCIGECKPEFMTKSHQQYTFVNPSVLSLSPIRGPESGGTMVTITGHYLGAGSSVAVYLGNQTCEFYGRSMNEIVCVSPPSSNGLGPVPVSVSVDRARVDSSLQFEYIDDPRVQRIEPEWSITSGHTPLTITGFNLDVIQEPRVRVKFNGKESVNVCTVVNTTTLTCLAPSLTSDYRPGLDTVERPDEFGFLFNNVQSLLIYNDTKFIYYPNPTFELLSPTGILDQKPGSPIILKGKNLCPPASGGAKLNYTVMIGETPCTVTVSETQLLCEPPNLTGQHKVMVHVGGMVFSPGSVSVISDSLLTLPAIISIAAGGSLLLIIVIIVLIAYKRKSRENDLTLKRLQMQMDNLESRVALECKEAFAELQTDINELTSDLDRSGIPYLDYRTYAMRVLFPGIEDHPVLRELEVQGNGQQHVEKALKLFAQLINNKVFLLTFIRTLELQRSFSMRDRGNVASLIMTGLQGRLEYATDVLKQLLSDLIDKNLENKNHPKLLLRRTESVAEKMLTNWFAFLLHKFLKECAGEPLFMLYCAIKQQMEKGPIDAITGEARYSLSEDKLIRQQIEYKTLILNCVNPDNENSPEIPVKVLNCDTITQVKEKILDAVYKNVPYSQRPRAVDMDLEWRQGRIARVVLQDEDITTKIEGDWKRLNTLMHYQVSDRSVVALVPKQTSSYNIPASASISRTSISRYDSSFRYTGSPDSLRSRVPMITPDLESGVKVWHLVKNHDHGDQKEGDRGSKMVSEIYLTRLLATKGTLQKFVDDLFETLFSTVHRGSALPLAIKYMFDFLDEQADRHSIHDTDVRHTWKSNCLPLRFWVNVIKNPQFVFDIHKGSITDACLSVVAQTFMDSCSTSEHRLGKDSPSNKLLYAKDIPSYKNWVERYYADIAKLPAISDQDMNAYLAEQSRLHATEFNMLSALNEIYSYVSKYSEELIGALEQDEQARRQRLAYKVEHLINAMSIES
B3: Semaphorin-3A (Mus musculus), O08665 (parent)
chain: MGWFTGIACLFWGVLLTARANYANGKNNVPRLKLSYKEMLESNNVITFNGLANSSSYHTFLLDEERSRLYVGAKDHIFSFNLVNIKDFQKIVWPVSYTRRDECKWAGKDILKECANFIKVLEAYNQTHLYACGTGAFHPICTYIEVGHHPEDNIFKLQDSHFENGRGKSPYDPKLLTASLLIDGELYSGTAADFMGRDFAIFRTLGHHHPIRTEQHDSRWLNDPRFISAHLIPESDNPEDDKVYFFFRENAIDGEHSGKATHARIGQICKNDFGGHRSLVNKWTTFLKARLICSVPGPNGIDTHFDELQDVFLMNSKDPKNPIVYGVFTTSSNIFKGSAVCMYSMSDVRRVFLGPYAHRDGPNYQWVPYQGRVPYPRPGTCPSKTFGGFDSTKDLPDDVITFARSHPAMYNPVFPINNRPIMIKTDVNYQFTQIVVDRVDAEDGQYDVMFIGTDVGTVLKVVSVPKETWHDLEEILLEEMTVFREPTTISAMELSTKQQQLYIGSTAGVAQLPLHRCDIYGKACAECCLARDPYCAWDGSSCSRYFPTAKRRTRRQDIRNGDPLTHCSDLQHHDNHHGPSLEERIIYGVENSSTFLECSPKSQRALVYWQFQRRNEDRKEEIRMGDHIIRTEQGLLLRSLQKKDSGNYLCHAVEHGFMQTLLKVTLEVIDTEHLEELLHKDDDGDGSKIKEMSSSMTPSQKVWYRDFMQLINHPNLNTMDEFCEQVWKRDRKQRRQRPGHSQGSSNKWKHMQESKKGRNRRTHEFERAPRSV
B4: Neuropilin-1 (Mus musculus), P97333 (parent)
chain: B1 chain
partner: B3 chain

Variants of: B1
Conditions: with plxa2_mouse Plxna2, P70207

| effect of a mutation on the interaction | Variant |
| --- | --- |
| disrupting interaction strength | P73A;H74S |

Variants of: B2
Conditions: with nrp1_mouse Nrp1, P97333

| effect of a mutation on the interaction | Variant |
| --- | --- |
| decreasing interaction strength | F275N |

Variants of: B3
Conditions: with nrp1_mouse Nrp1, P97333

| effect of a mutation on the interaction | Variant |
| --- | --- |
| decreasing interaction strength | L353N;P355S |

Variants of: B4
Conditions: with sem3a_mouse Sema3a

| effect of a mutation on the interaction | Variant |
| --- | --- |
| disrupting interaction strength | P73A;H74S |

From IntAct's records for PubMed 23104057
